Reference: patent US20100092954A1, “Method for Determining the Genetic Basis for Physiological Changes in Organisms” (priority 2006, published 2010)

Tested on: glycerol kinase (glpK)
Assay: Biochemical measurements of mutant glycerol kinase (partially purified protein): reaction rate and inhibition by FBP
Set-up: species or system Escherichia coli
Conditions: partially purified protein from cells expressing the enzyme
Description: All clones had mutations in the gene for glycerol kinase (glpK), which catalyzes the first step in glycerol catabolism. This protein is subject to inhibition by fructose-1,6-bisphosphate (FBP) and phosphorylated enzyme IIA^Glc. […] Since all glycerol-adapted populations have mutations in glpK, rapid growth on glycerol can be partially attributed to altered kinetic and regulatory properties of glycerol kinase. Evidently the rate of glycerol phosphorylation catalyzed by GlpK is rate-limiting to the growth of WT E. coli MG 1655. The glycerol catabolic pathway generates the glycolytic intermediate dihydroxyacetone phosphate, which can be converted to methylglyoxal, a toxic metabolite when present at high concentrations. It is noteworthy that no mutations were detected in any genes relating to methylglyoxal metabolism.

B1: WT: wild-type E. coli MG1655 glycerol kinase (GlpK) (protein, UniProt P0A6F3 2-502, looked up)
Glycerol kinase: TEKKYIVALDQGTTSSRAVVMDHDANIISVSQREFEQIYPKPGWVEHDPMEIWATQSSTLVEVLAKADISSDQIAAIGITNQRETTIVWEKETGKPIYNAIVWQCRRTAEICEHLKRDGLEDYIRSNTGLVIDPYFSGTKVKWILDHVEGSRERARRGELLFGTVDTWLIWKMTQGRVHVTDYTNASRTMLFNIHTLDWDDKMLEVLDIPREMLPEVRRSSEVYGQTNIGGKGGTRIPISGIAGDQQAALFGQLCVKEGMAKNTYGTGCFMLMNTGEKAVKSENGLLTTIACGPTGEVNYALEGAVFMAGASIQWLRDEMKLINDAYDSEYFATKVQNTNGVYVVPAFTGLGAPYWDPYARGAIFGLTRGVNANHIIRATLESIAYQTRDVLEAMQADSGIRLHALRVDGGAVANNFLMQFQSDILGTRVERPEVREVTALGAAYLAGLAVGFWQNLDELQEKAVIEREFRPGIETTERNYRYAGWKKAVKRAMAWEEHDE
  Vmax: 15.8 μmol glycerol/min/mg
